Measurements reported in the Human Domainome abundance scans (Beltran et al. 2025).
± gives the uncertainty stated by the source.

B1: Homeobox protein cut-like 1, residues 548 to 629; numbered along this chain, P39880 (parent)
chain: GEEMDTAEIARQVKEQLIKHNIGQRIFGHYVLGLSQGSVSEILARPKPWNKLTVRGKEPFHKMKQFLSDEQNILALRSIQGR

Variants of: B1
Assay: abundance fitness (aPCA) (normalised: wild type 0, dead -1); higher = more abundant; growth selection in yeast, the domain comes from the species named
Settings: Homo sapiens

For GEEMDTAEIARQVKEQLIKHNIGQRIFGHYVLGLSQGSVSEILARPKPWNKLTVRGKEPFHKMKQFLSDEQNILALRSIQSR, which abundance fitness is on record?
The abundance fitness was -0.028 ± 0.038.

For GEEMDTAEIARQVKEQLIKHNIGQRIFGHYVLGLSQGSVSEILARPKPWNKLTVRGKEPFHKMKQFLSDEQNILALRSIQNR, which abundance fitness is on record?
The abundance fitness was 0.117 ± 0.065.

Which abundance fitness does the source give for GEEMDTAEIARQVKEQLIKHNIGQRIFGHYVLGLSQGSVSEILARPKPWNKLTVRGKEPFHKMKQFLSDEQNILALRSIQFR here?
Its abundance fitness is -0.138 ± 0.059.

For GEEMDTAEIARQVKEQLIKHNIGQRIFGHYVLGLSQGSVSEILARPKPWNKLTVRGKEPFHKMKQFLSDEQNILALRSIQIR, which abundance fitness is on record?
Its abundance fitness is 0.008 ± 0.057.

With GEEMDTAEIARQVKEQLIKHNIGQRIFGHYVLGLSQGSVSEILARPKPWNKLTVRGKEPFHKMKQFLSDEQNILALRSIQQR as the variant, how does the abundance fitness read?
Its abundance fitness is 0.095 ± 0.054.

For GEEMDTAEIARQVKEQLIKHNIGQRIFGHYVLGLSQGSVSEILARPKPWNKLTVRGKEPFHKMKQFLSDEQNILALRSIQLR, which abundance fitness is on record?
The abundance fitness was -0.097 ± 0.042.

Which abundance fitness does the source give for GEEMDTAEIARQVKEQLIKHNIGQRIFGHYVLGLSQGSVSEILARPKPWNKLTVRGKEPFHKMKQFLSDEQNILALRSIQRR here?
The abundance fitness was -0.021 ± 0.036.

With GEEMDTAEIARQVKEQLIKHNIGQRIFGHYVLGLSQGSVSEILARPKPWNKLTVRGKEPFHKMKQFLSDEQNILALRSIQHR as the variant, how does the abundance fitness read?
The abundance fitness was 0.04 ± 0.08.

With GEEMDTAEIARQVKEQLIKHNIGQRIFGHYVLGLSQGSVSEILARPKPWNKLTVRGKEPFHKMKQFLSDEQNILALRSIQKR as the variant, how does the abundance fitness read?
The abundance fitness was -0.068 ± 0.054.

With GEEMDTAEIARQVKEQLIKHNIGQRIFGHYVLGLSQGSVSEILARPKPWNKLTVRGKEPFHKMKQFLSDEQNILALRSIQYR as the variant, how does the abundance fitness read?
The abundance fitness was -0.163 ± 0.07.

With GEEMDTAEIARQVKEQLIKHNIGQRIFGHYVLGLSQGSVSEILARPKPWNKLTVRGKEPFHKMKQFLSDEQNILALRSIQWR as the variant, how does the abundance fitness read?
Its abundance fitness is -0.077 ± 0.052.

For GEEMDTAEIARQVKEQLIKHNIGQRIFGHYVLGLSQGSVSEILARPKPWNKLTVRGKEPFHKMKQFLSDEQNILALRSIQVR, which abundance fitness is on record?
Its abundance fitness is 0.024 ± 0.035.

With GEEMDTAEIARQVKEQLIKHNIGQRIFGHYVLGLSQGSVSEILARPKPWNKLTVRGKEPFHKMKQFLSDEQNILALRSIQPR as the variant, how does the abundance fitness read?
The abundance fitness was -0.103 ± 0.077.

With GEEMDTAEIARQVKEQLIKHNIGQRIFGHYVLGLSQGSVSEILARPKPWNKLTVRGKEPFHKMKQFLSDEQNILALRSIQTR as the variant, how does the abundance fitness read?
The abundance fitness was 0.037 ± 0.047.

With GEEMDTAEIARQVKEQLIKHNIGQRIFGHYVLGLSQGSVSEILARPKPWNKLTVRGKEPFHKMKQFLSDEQNILALRSIQGW as the variant, how does the abundance fitness read?
Its abundance fitness is -0.149 ± 0.049.

Which abundance fitness does the source give for GEEMDTAEIARQVKEQLIKHNIGQRIFGHYVLGLSQGSVSEILARPKPWNKLTVRGKEPFHKMKQFLSDEQNILALRSIQGC here?
Its abundance fitness is -0.054 ± 0.076.

With GEEMDTAEIARQVKEQLIKHNIGQRIFGHYVLGLSQGSVSEILARPKPWNKLTVRGKEPFHKMKQFLSDEQNILALRSIQGS as the variant, how does the abundance fitness read?
Its abundance fitness is 0.011 ± 0.046.

With GEEMDTAEIARQVKEQLIKHNIGQRIFGHYVLGLSQGSVSEILARPKPWNKLTVRGKEPFHKMKQFLSDEQNILALRSIQGP as the variant, how does the abundance fitness read?
Its abundance fitness is 0.065 ± 0.063.

For GEEMDTAEIARQVKEQLIKHNIGQRIFGHYVLGLSQGSVSEILARPKPWNKLTVRGKEPFHKMKQFLSDEQNILALRSIQGH, which abundance fitness is on record?
The abundance fitness was 0.063 ± 0.13.

With GEEMDTAEIARQVKEQLIKHNIGQRIFGHYVLGLSQGSVSEILARPKPWNKLTVRGKEPFHKMKQFLSDEQNILALRSIQGA as the variant, how does the abundance fitness read?
The abundance fitness was 0.013 ± 0.047.

For GEEMDTAEIARQVKEQLIKHNIGQRIFGHYVLGLSQGSVSEILARPKPWNKLTVRGKEPFHKMKQFLSDEQNILALRSIQGQ, which abundance fitness is on record?
The abundance fitness was 0.172 ± 0.067.

Which abundance fitness does the source give for GEEMDTAEIARQVKEQLIKHNIGQRIFGHYVLGLSQGSVSEILARPKPWNKLTVRGKEPFHKMKQFLSDEQNILALRSIQGM here?
Its abundance fitness is -0.047 ± 0.056.

With GEEMDTAEIARQVKEQLIKHNIGQRIFGHYVLGLSQGSVSEILARPKPWNKLTVRGKEPFHKMKQFLSDEQNILALRSIQGK as the variant, how does the abundance fitness read?
The abundance fitness was 0.123 ± 0.07.

Which abundance fitness does the source give for GEEMDTAEIARQVKEQLIKHNIGQRIFGHYVLGLSQGSVSEILARPKPWNKLTVRGKEPFHKMKQFLSDEQNILALRSIQGL here?
Its abundance fitness is -0.06 ± 0.047.

For GEEMDTAEIARQVKEQLIKHNIGQRIFGHYVLGLSQGSVSEILARPKPWNKLTVRGKEPFHKMKQFLSDEQNILALRSIQGY, which abundance fitness is on record?
The abundance fitness was -0.079 ± 0.067.

For GEEMDTAEIARQVKEQLIKHNIGQRIFGHYVLGLSQGSVSEILARPKPWNKLTVRGKEPFHKMKQFLSDEQNILALRSIQGN, which abundance fitness is on record?
Its abundance fitness is 0.076 ± 0.089.

For GEEMDTAEIARQVKEQLIKHNIGQRIFGHYVLGLSQGSVSEILARPKPWNKLTVRGKEPFHKMKQFLSDEQNILALRSIQGD, which abundance fitness is on record?
Its abundance fitness is -0.092 ± 0.07.

Which abundance fitness does the source give for GEEMDTAEIARQVKEQLIKHNIGQRIFGHYVLGLSQGSVSEILARPKPWNKLTVRGKEPFHKMKQFLSDEQNILALRSIQGE here?
Its abundance fitness is 0.047 ± 0.05.

For GEEMDTAEIARQVKEQLIKHNIGQRIFGHYVLGLSQGSVSEILARPKPWNKLTVRGKEPFHKMKQFLSDEQNILALRSIQGG, which abundance fitness is on record?
Its abundance fitness is 0.117 ± 0.035.

For GEEMDTAEIARQVKEQLIKHNIGQRIFGHYVLGLSQGSVSEILARPKPWNKLTVRGKEPFHKMKQFLSDEQNILALRSIQGV, which abundance fitness is on record?
The abundance fitness was 0.024 ± 0.046.

Which abundance fitness does the source give for GEEMDTAEIARQVKEQLIKHNIGQRIFGHYVLGLSQGSVSEILARPKPWNKLTVRGKEPFHKMKQFLSDEQNILALRSIQGT here?
Its abundance fitness is -0.039 ± 0.052.
